Laboratory results published in paper PMC10746525.

Assays:
GCN4-TRAK1_(342-431) [1] = molecular target: GCN4-TRAK1_(342-431) (UniProt Q9UPV9); assay: ITC; VP-ITC, 25 °C; ITC buffer (20 mM Hepes pH 7.5, 400 mM NaCl, 1 mM MgCl2, 5% w/v sucrose, 0.1 μM GTP) with 5 mM EGTA; the binder of each row in the syringe
GCN4-TRAK1_(342-431) [2] = molecular target: GCN4-TRAK1_(342-431) (UniProt Q9UPV9); assay: ITC; VP-ITC, 25 °C; ITC buffer (20 mM Hepes pH 7.5, 400 mM NaCl, 1 mM MgCl2, 5% w/v sucrose, 0.1 μM GTP) with 50 μM CaCl2; MIRO1_(177-591) in the syringe, TRAK1 construct in the cell

Sequence of MIRO1_(177-591) (Q8IXI2 177-591): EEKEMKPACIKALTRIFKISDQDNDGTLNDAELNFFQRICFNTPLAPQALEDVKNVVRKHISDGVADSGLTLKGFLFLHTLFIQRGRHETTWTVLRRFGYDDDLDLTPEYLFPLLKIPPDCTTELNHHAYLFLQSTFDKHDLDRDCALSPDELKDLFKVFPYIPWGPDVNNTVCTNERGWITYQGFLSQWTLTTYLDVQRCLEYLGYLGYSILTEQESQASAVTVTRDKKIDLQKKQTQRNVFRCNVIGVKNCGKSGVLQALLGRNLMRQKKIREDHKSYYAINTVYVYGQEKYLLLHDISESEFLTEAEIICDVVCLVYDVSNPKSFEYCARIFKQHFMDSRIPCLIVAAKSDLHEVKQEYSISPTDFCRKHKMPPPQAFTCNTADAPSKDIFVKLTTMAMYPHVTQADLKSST

Kd (GCN4-TRAK1_(342-431) [1]): 5.13 µM
stoichiometry N (GCN4-TRAK1_(342-431) [1]): 1.84
Kd (GCN4-TRAK1_(342-431) [2]): 7.04 µM
stoichiometry N (GCN4-TRAK1_(342-431) [2]): 1.93
Substance: MIRO1_(177-591) (from UniProt Q8IXI2 177-591) (domain or fragment)
